T1: human SIGLEC15 on CHO-S-hSIGLEC15 cells (human, UniProt Q6ZMC9 20-328)
T1 sequence: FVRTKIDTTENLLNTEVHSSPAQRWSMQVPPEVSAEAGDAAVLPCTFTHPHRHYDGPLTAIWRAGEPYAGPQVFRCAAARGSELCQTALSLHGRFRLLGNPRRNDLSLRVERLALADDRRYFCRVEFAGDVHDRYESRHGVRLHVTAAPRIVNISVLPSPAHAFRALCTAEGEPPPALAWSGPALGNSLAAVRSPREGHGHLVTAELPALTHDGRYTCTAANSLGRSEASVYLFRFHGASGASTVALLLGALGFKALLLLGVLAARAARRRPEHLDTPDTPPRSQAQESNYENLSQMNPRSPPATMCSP


Legend:
[1] = molecular target: T1, human SIGLEC15 on CHO-S-hSIGLEC15 cells; experiment: flow cytometry (MFI) on CHO-S-hSIGLEC15 cells; antibody sample: freeze 10
Description: (§1) In the activity detection experiment, 30 μL of CHO-S-hSIGLEC15 cells were added to the culture plate, and the antibody to be tested was added in a gradient dilution ([…]), and incubated at 4° C. for 30 min. The plate was washed with PBS, and diluted secondary antibody Anti-hIgG-Fc-Alex Flour 647 (RL1-H) (1:2000) was added, incubated at 4° C. for 30 min. The plate was washed once with PBS and the cells were resuspended for flow cytometry detection. MFI value was derived by FlowJo 7.6.1 analysis to calculate EC50.

[2] = molecular target: T1, human SIGLEC15 on CHO-S-hSIGLEC15 cells; experiment: flow cytometry (MFI) on CHO-S-hSIGLEC15 cells; antibody sample: 40° C. 7 d
Description: as §1

[3] = molecular target: T1, human SIGLEC15 on CHO-S-hSIGLEC15 cells; experiment: flow cytometry (MFI) on CHO-S-hSIGLEC15 cells; antibody sample: pH 3.5 6 h
Description: as §1

[4] = molecular target: T1, human SIGLEC15 on CHO-S-hSIGLEC15 cells; experiment: flow cytometry (MFI) on CHO-S-hSIGLEC15 cells; antibody sample: pH 3.5 0 h
Description: as §1

[5] = molecular target: T1, human SIGLEC15 on CHO-S-hSIGLEC15 cells; experiment: flow cytometry (MFI) on CHO-S-hSIGLEC15 cells; antibody sample: freeze 1
Description: as §1

[6] = molecular target: T1, human SIGLEC15 on CHO-S-hSIGLEC15 cells; experiment: flow cytometry (MFI) on CHO-S-hSIGLEC15 cells; antibody sample: 25° C. 7 d
Description: as §1

| EC50 [1] [µg/mL] | EC50 [2] [µg/mL] | EC50 [3] [µg/mL] | EC50 [4] [µg/mL] | EC50 [5] [µg/mL] | EC50 [6] [µg/mL] | Binder |
| --- | --- | --- | --- | --- | --- | --- |
| 0.81 | 0.6 | 0.11 | 0.44 | 0.62 | 0.65 | anti-SIGLEC15 antibody 10C9 (antibody, human IgG1, V domains shown) VH: QVQLVQSGAEVKKPGATVKVSCKASGYTFTNYGFSWVRQAPGQGLEWMGWINTYNDNTNYAQKFQGRVTMTTDTSTSTAYMELRSLRSDDTAVYYCARDGLWFGELPHYFDYWGQGTLVTVSS VL: DIQLTQSPLSSPVTLGQPASISCRSSQSLVNSDGETFLSWLQQRPGQPPRLLIYKISNRFSGVPDRFSGSGAGTDFTLKISRVEAEDVGVYYCMQATQFPHTFGQGTKLEIK |
| 0.129 | 0.111 | 0.221 | 0.148 | 0.125 | 0.106 | anti-SIGLEC15 antibody 23F4 (antibody, human IgG1, V domains shown) VH: QVQLQQWGAGLLKPSETLSLTCAVYGGSFSGYFWSWIRQPPGKGLEWIGEINHSGSTNYNPSLKSRVTLSVDTSKNQFSLKLSSVTAADTAVYYCAREGDSSSWGNWFDPWGQGTLVTVSS VL: EIVLTQSPGTLSLSPGERATLSCRASQSVSSSYLAWYQQKPGQAPRFLIYGASSRATGIPDRFSGSGSGTDFTLTISRLEPEDFAVYYCQQFGNSPLTFGGGTKVEIK |

— patent publication US20250361296A1 (BIOCYTOGEN PHARMACEUTICALS BEIJING, published 2025)
